How the values were obtained:
[1] = target: Ara h 2 (purified natural peanut allergen) (Arachis hypogaea) (UniProt Q6PSU2); test: BLI, antibody on anti-human IgG Fc sensors, Ara h 2 as analyte, top 6 nM
[2] = target: Ara h 2 (purified natural peanut allergen) (Arachis hypogaea) (UniProt Q6PSU2); test: biolayer interferometry
[3] = target: Ara h 2 (purified natural peanut allergen) (Arachis hypogaea) (UniProt Q6PSU2); test: not named there (biolayer interferometry in Example 1)

Chain of Ara h 2 (purified natural peanut allergen) (Arachis hypogaea) (Q6PSU2 22-172): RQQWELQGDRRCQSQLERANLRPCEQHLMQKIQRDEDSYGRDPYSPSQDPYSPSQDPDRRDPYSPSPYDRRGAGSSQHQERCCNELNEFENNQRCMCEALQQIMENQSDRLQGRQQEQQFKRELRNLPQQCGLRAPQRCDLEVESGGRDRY

Kd [1] [nM] | Kd [2] [nM] | Kd [3] [nM] | Binder
0.014 |  |  | PA12P3D08 (antibody, human IgG1, V domains shown) VH: QVQLVESGGGVVQPGKSLRLSCAASAFTFRRFAMHWVRQAPGKGLEWVAVISDNGLREDYEDSVKGRFTISRDNSQNTLYLQMNGLRAEDTAVYYCAKVLDYNEYSLYFGMDVWGQGTTVTVSS VL: EVVLTQSPATLSLSPGERATLSCRTSQAISNNFLAWYQQRPGQPPRLLIYASSRRATDTPDRFTGSGSGTDFTLTITRLEPEDFAVYFCQYYSDSPPYTFGPGTKLEIK
0.017 |  |  | PA12P1C07 (antibody, human IgG1, V domains shown) VH: QVQLEESGGGVVQPGKSLRLSCVASAFTFKRFAMHWVRQAPGKGLEWVAVISDNGLREDYEDSVKGRFTISRDNSKDTLYLQMNSLRPEDTAIYYCAKVLDYSEYSLYFGMDVWGQGTTVLVSS VL: EIVLTQSPAILSLSPGDRATLSCRTSQTVNSNFLAWYQQKPGQAPRLLIYGASRRAIDIPDRFTGSGSGTEFTLTIARLEPEDFAVYSCQHYSDSPPYTFGQGTKLEIK
0.54 | < 1 |  | PA15P1D05 (antibody, human IgG1, V domains shown) VH: QVHLVESGGGVVQPGRSLGLSCVASGFTFNYYAIHWVRQAPGKGLEWVAVVSFDGNIIYYADSVKGRFNISRDNSKNTVNLQMNSLRPDDTAVYYCVRDGEYCSGGNCYWGDFDHWGQGSLVTVSP VL: EIVLTQSPATLSLSPGERATLSCRASQSISSEYLTWFQQKPGQAPRLLIYGAFNRATGIPDRFSGSGSGTDFTLTISSLEPEDFAVYYCQQYANWWTFGQGTKVEIK
0.65 | < 1 |  | PA15P1D12 (antibody, human IgG1, V domains shown) VH: QVHLVESGGGVVQPGRSLGLSCAASGFTFNYYAIHWVRQAPGKGLEWVAVVSFDGNIIYYADSVKGRFNISRDNSKNTVNLQMNSLRADDTAVYYCVRDGEYCSGGNCYWGDFDYWGQGTLVTVSP VL: EIVLTQSPGTLSLSPGERATLSCRASQSISSEYLTWFQQKPGQAPRLLIYGAFNRATGIPDRFSGSGSGTDFTLTISSLEPEDFAVYYCQQYANWWTFGQGTKVEIK
0.016 |  |  | PA13P1H08 variant rCDR1-N (antibody, human IgG1, V domains shown) VH: QVQLVNSGGGVVQPGRSLRLSCVASGFTFSSYGIHWVRQAPGKGLEWVAVISNDGEKSESADSVKGRFTPSRDNSKNTVYLQMNNLRVEDTAVYYCAKVLDYSRYSYYYGMDVWGQGTTVIVSS VL: EIVLTQSPGTLSLSPGGRGTLSCRTSQTINNAHLAWYQHKPGQAPRLLIYGSSERATGVPDRFSGSGSGSDFTLTISSLEAEDFAVYYCQHYGRSPPYTFGPGTKLDIK
0.008 |  | < 1 | PA13P1H08 variant rCDR2-N (antibody, human IgG1, V domains shown) VH: QVQLVNSGGGVVQPGRSLRLSCVASGFTFSTFGIHWVRQAPGKGLEWVAVISYDGSNKESADSVKGRFTPSRDNSKNTVYLQMNNLRVEDTAVYYCAKVLDYSRYSYYYGMDVWGQGTTVIVSS VL: EIVLTQSPGTLSLSPGGRGTLSCRTSQTINNAHLAWYQHKPGQAPRLLIYGSSERATGVPDRFSGSGSGSDFTLTISSLEAEDFAVYYCQHYGRSPPYTFGPGTKLDIK
0.039 |  |  | PA13P1H08 variant rFWRs-N (antibody, human IgG1, V domains shown) VH: QVQLVESGGGVVQPGRSLRLSCAASGFTFSTFGMHWVRQAPGKGLEWVAVISNDGEKSYYADSVKGRFTISRDNSKNTLYLQMNSLRAEDTAVYYCAKVLDYSRYSYYYGMDVWGQGTTVTVSS VL: EIVLTQSPGTLSLSPGGRGTLSCRTSQTINNAHLAWYQHKPGQAPRLLIYGSSERATGVPDRFSGSGSGSDFTLTISSLEAEDFAVYYCQHYGRSPPYTFGPGTKLDIK

Reference: patent US20210246195A1
